From publication PMC13035853, “Mechanism of beta-arrestin 1 mediated Src activation via Src SH3 domain revealed by cryo-electron microscopy” (Nature Communications, 2026)

Biological target: SH3 domain of Src (residues 83-141), wild type, with C-terminal FLAG-tag (chicken, UniProt P00523 83-141)
Test: bimane fluorescence; as a10, for the pair of SH3 (250 nM) and βarr1 V70C-mBr (20 nM), both purified; read-out is the loss of the V2R-induced rise of bimane fluorescence
Conditions: both partners purified

binding result: binds
B1: βarr1-MC-393 V70C labeled with monobromobimane (natural protein, rat, UniProt P29066 1-393, looked up)
chain: MGDKGTRVFKKASPNGKLTVYLGKRDFVDHIDLVDPVDGVVLVDPEYLKERRVYVTLTAAFRYGREDLDCLGLTFRKDLFVANVQSFPPAPEDKKPLTRLQERLIKKLGEHAYPFTFEIPPNLPSSVTLQPGPEDTGKAIGVDYEVKAFVAENLEEKIHKRNSVRLVIRKVQYAPERPGPQPTAETTRQFLMSDKPLHLEASLDKEIYYHGEPISVNVHVTNNTNKTVKKIKISVRQYADIVLFNTAQYKVPVAMEEADDTVAPSSTFSKVYTLTPFLANNREKRGLALDGKLKHEDTNLASSTLLREGANREILGIIVSYKVKVKLVVSRGGLLGDLASSDVAVELPFTLMHPKPKEEPPHREVPESETPVDTNLIELDTNDDDIVFEDFAR
modifications: bimane (mBr) on C70 of the finger loop
notes: beta-arrestin 1, rat, minimal cysteine and truncated variant (MC-393) with V70C; also called βarr1 V70C-mBr; βarr1 finger loop bimane; source: E. coli BL21 derivative, purified; labeled with monobromobimane, free label removed by SEC
